From patent US20250121104A1 (FUSION PHARMACEUTICALS, published 2025)

What was measured:
Assay in all cases: SPR (BIAcore T200), antibody captured on anti-human IgG, soluble monomeric antigen as analyte, 25 C, 1:1 fit
[1] = target: T1, cynomolgus monkey cMET (recombinant, soluble monomeric) (cynomolgus monkey, UniProt A0M8R7 25-932 (Papio anubis entry))
T1 construct: also called cyno cMET
Method: (§1) Mouse anti-human IgG was immobilized on a CM4 sensor chip with a final surface density of ˜2000 resonance units (RUs). A reference flow cell surface was also prepared on this sensor chip using identical immobilization protocol. Test and control article antibodies were prepared at 5-20 nM in instrument buffer (HBS-EP buffer; 0.01M HEPES, pH 7.4, 0.15M NaCl, 3 mM EDTA, and 0.005% P-20), along with 3-fold serial dilutions of purified EGFR (0.27-200 nM human, 0.4-900 nM cyno, and 4-1000 nM murine) or cMET proteins (0.27-66 nM human and 0.27-22 nM cyno) in instrument buffer. A sequential approach was utilized for kinetic measurements. Antibodies were first injected over the capture surface, at a flow rate of 10 μL/minute. Once the binding of the captured antibody stabilized, a single concentration of the analyte was injected over both capture and reference surfaces, at a flow rate of 75 μL/minute. The resulting binding response curves yielded the association phase data. Following the injection of analyte, the flow was then switched back to instrument buffer for 15 minutes to permit the collection of dissociation phase data, followed by a 1-minute pulse of 10 mM glycine, pH 1.5, to regenerate the antibody-captured surface on the chip. Binding responses against test and control article antibodies were recorded from duplicate injections of each concentration of analyte. In addition, several buffer injections were interspersed throughout the injection series. Select buffer injections were used along with the reference cell responses to correct the raw data sets for injection artifacts and/or nonspecific binding interactions, commonly referred to as “double referencing”. Corrected binding data were globally fit to a 1:1 binding model (Biacore T200 Evaluation software 2.0, GE Healthcare, Pittsburgh, PA).
(§2) Kinetic measurements to soluble monomeric forms of EGFR and cMET were performed using a BIACore instrument.

[2] = target: T2, human EGFR (recombinant, soluble monomeric) (human, UniProt P00533 25-645)
T2 construct: also called EGFR antigen
Method: as §1, §2

[3] = target: T3, cynomolgus monkey EGFR (recombinant, soluble monomeric) (cynomolgus monkey, UniProt P55245 25-645 (rhesus entry))
T3 construct: also called cyno EGFR
Method: as §1, §2

[4] = target: T4, mouse EGFR (recombinant) (mouse, UniProt Q01279 25-647)
T4 construct: also called murine EGFR
Method: as §1, §2

[5] = target: T5, human cMET (recombinant, soluble monomeric) (human, UniProt P08581 25-932)
T5 construct: also called cMET antigen; His-tagged cMET antigen
Method: as §1, §2

T5 sequence (P08581 25-932): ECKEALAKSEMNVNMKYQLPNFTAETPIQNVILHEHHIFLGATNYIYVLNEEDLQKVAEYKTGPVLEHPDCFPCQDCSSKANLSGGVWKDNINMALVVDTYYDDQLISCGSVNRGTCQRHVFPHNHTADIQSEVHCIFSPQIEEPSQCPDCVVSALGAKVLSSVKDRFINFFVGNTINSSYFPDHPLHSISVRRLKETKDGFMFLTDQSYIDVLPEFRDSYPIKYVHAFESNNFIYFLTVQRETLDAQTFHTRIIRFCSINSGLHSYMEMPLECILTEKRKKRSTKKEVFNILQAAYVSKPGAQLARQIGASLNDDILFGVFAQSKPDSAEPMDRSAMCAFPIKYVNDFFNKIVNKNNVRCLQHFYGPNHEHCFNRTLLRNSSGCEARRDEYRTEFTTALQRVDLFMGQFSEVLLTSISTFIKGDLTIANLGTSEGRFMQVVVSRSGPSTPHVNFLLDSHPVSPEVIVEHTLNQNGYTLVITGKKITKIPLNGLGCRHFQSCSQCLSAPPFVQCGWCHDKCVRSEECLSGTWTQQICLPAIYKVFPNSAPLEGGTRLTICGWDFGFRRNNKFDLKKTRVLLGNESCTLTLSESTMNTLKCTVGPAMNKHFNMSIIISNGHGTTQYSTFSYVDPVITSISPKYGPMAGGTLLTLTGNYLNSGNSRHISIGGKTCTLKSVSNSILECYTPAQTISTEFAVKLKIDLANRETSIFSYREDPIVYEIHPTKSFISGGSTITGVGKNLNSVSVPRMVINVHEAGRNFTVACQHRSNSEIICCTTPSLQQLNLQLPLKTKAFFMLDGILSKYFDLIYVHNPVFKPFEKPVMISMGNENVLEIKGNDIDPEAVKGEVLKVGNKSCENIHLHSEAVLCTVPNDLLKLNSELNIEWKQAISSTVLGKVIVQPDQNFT
T1 sequence (A0M8R7 25-932 S170N/I621T): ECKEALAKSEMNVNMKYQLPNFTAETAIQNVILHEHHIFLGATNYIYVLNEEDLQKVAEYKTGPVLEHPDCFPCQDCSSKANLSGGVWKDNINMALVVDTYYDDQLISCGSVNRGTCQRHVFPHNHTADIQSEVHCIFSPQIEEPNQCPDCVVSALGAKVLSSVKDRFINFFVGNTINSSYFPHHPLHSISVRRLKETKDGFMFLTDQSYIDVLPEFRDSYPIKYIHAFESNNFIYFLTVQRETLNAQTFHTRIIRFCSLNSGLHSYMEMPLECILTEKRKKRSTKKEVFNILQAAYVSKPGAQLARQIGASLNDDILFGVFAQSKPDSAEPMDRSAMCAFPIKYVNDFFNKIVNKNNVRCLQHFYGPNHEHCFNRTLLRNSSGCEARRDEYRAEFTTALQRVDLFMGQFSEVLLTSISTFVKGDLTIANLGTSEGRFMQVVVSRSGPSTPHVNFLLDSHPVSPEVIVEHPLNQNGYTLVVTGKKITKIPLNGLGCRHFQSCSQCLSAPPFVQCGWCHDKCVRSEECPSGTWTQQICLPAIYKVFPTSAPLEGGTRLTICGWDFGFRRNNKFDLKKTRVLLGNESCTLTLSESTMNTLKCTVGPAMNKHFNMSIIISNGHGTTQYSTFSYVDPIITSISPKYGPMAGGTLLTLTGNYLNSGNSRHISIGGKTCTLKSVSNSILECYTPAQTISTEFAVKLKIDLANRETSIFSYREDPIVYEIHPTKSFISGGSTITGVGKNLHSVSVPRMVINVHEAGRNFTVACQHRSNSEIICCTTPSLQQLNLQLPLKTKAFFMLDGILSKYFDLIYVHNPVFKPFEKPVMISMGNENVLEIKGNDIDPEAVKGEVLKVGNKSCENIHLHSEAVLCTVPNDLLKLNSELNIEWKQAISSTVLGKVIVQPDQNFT

B1: RAA22/B09-57 DuetMab (bispecific antibody, V domains shown)
VH 1: QVQLVQSGAEVKKPGSSVKVSCKASGGTFSDNDFSWVRQAPGQGLEWMGAIVAVFRTETYAQKFQDRVKITADISTRTTYMELSSLRSEDTAVYYCARRLMSAISGPGAPLLMWGQGTLVTVSS
VL 1: QSALTQPRSVSGSPGQSVTISCTGTSSDVGGYNYVSWYQQHPGKAPKLMIYDVSKRPSGVPDRFSGSKSGNTASLTISGLQAEDEADYYCSSYTSSDTLEIFGGGTKLTVL
VH 2: QVQLVQSGAEVKKPGASVKVSCKASGYTFTDYYIHWVRQATGQGLEWMGWMNPNSGNTGYAQKFQGRVTMTRDTSISTAYMELSSLRSEDTAVYYCARGQGYTHSWGQGTMVTVSS
VL 2: DIQMTQSPSTLSASVGDRVTITCRASEGIYHWLAWYQQKPGKAPKLLIYKASSLASGVPSRFSGSGSGTEFTLTISSLQPDDFATYYCQQYSNYPPTFGGGTKLEIK
notes: RAA22 VH on Hole heavy chain (T366S, L368A, Y407V, Y349C) with lambda CL; cysteine insertion after S239; also called RAA22/B09 DuetMab; RAA22/B09 bispecific mAb
[1]
  Kd: 2.2 nM
  koff: 0.00212 s⁻¹
  kon: 974000 M⁻¹ s⁻¹
[2]
  Kd: 45 nM
  koff: 0.00201 s⁻¹
  kon: 44700 M⁻¹ s⁻¹
[3]
  Kd: 197 nM
  koff: 0.00548 s⁻¹
  kon: 27800 M⁻¹ s⁻¹
[4]
  Kd: 575 nM
  koff: 0.0206 s⁻¹
  kon: 35400 M⁻¹ s⁻¹
[5]
  Kd: 2.2 nM
  koff: 0.000986 s⁻¹
  kon: 443000 M⁻¹ s⁻¹
